Measured values as given in article PMC4915627, “Staphylococcal Bap Proteins Build Amyloid Scaffold Biofilm Matrices in Response to Environmental Signals” (PLoS Pathogens, 2016).

Key:
[1] = biological target: the molecule itself; experiment: gel formation + electron microscopy + thioflavin-T fluorescence; synthetic peptide at 10 μM, pH 4.5, citrate buffer, room temperature (25°C), four weeks
[2] = biological target: the molecule itself; experiment: thioflavin-T fluorescence; fresh rBap_B at 0.01-0.036 mg/ml, 25 μM ThT, 25°C, pH 4.5, 5 min

B1: Bap_B amyloid peptide I (aa 487 to 496) (peptide)
peptide: TVGNIISNAG
notes: Bap of Staphylococcus aureus, stretch of region B, aa 487 to 496; source: synthetic peptide, bought: CASLO ApS
- binding result [1]: binds

B2: Bap_B amyloid peptide II (aa 579 to 584) (peptide)
peptide: GIFSYS
notes: Bap of Staphylococcus aureus, stretch of region B, aa 579 to 584; also called GIFSYS; source: synthetic peptide, bought: CASLO ApS
- binding result [1]: binds

B3: purified recombinant Bap_B protein (region B of Bap of S. aureus V329, amino acids 361-819, N-terminal hexahistidine tag) (domain or fragment)
chain: QKSLGYTDNYTFASMLFDPGKLDSDDALNSNIIPFDLHSYMSGANSGNRYKIDLKLDPIIAEHVTKISANPSGSNKPVEFVRNKDENGNLTDTWEVNFIRANDGLFGGAEILSQYTAKNGKIELDDTVGNIISNAGNLSNNKLNHQVFVRDSRENKIVRTSESSGYFLTKADDDLVNLENNVSTENNNAFKASSGSATYNENVGEFGGILIDQQIMKNGIFSYSKTKANQWAYNYQIDKDLLPYIEGVELHQYDYKGLNGFDKNYDAKNKVADLTIDEVGNGTITSDNLNKLIEFNNALPETVGVRVVLKLNKSVNNILTKDAKYDSEGNLIRETTKQKEDFTFAGYLTDSKGALINNTLGTSTLALQDYDKDGLLDRYERQLSLSDAENEDTDGDGKNDGDEVVNYKTSPLVGKPQAADITTEDTVVSGSVPLKEGAATQTAKVINAEGTTVGTATVN
notes: Biofilm associated protein Bap of Staphylococcus aureus V329, region B, amino acids 361-819 (1377 bp fragment cloned in pET46-Ek/LIC); The results give domain B as residues 362-819 (chimeras); the methods give 361-819 for the recombinant protein; also called B domain of Bap
- binding result [2]: binds
